Laboratory results taken from patent publication US20150210998.
Substitutions are numbered along the chain they refer to.

B1: E6AP ligase Hect domain (GST removed by thrombin) (protein)
chain: INEPLNEVLEMDKDYTFFKVETENKFSFMTCPFILNAVTKNLGLYYDNRIRMYSERRITVLYSLVQGQQLNPYLRLKVRRDHIIDDALVRLEMIAMENPADLKKQLYVEFEGEQGVDEGGVSKEFFQLVVEEIFNPDIGMFTYDESTKLFWFNPSSFETEGQFTLIGIVLGLAIYNNCILDVHFPMVVYRKLMGKKGTFRDLGDSHPVLYQSLKDLLEYEGNVEDDMMITFQISQTDLFGNPMMYDLKENGDKIPITNENRKEFVNLYSDYILNKSVEKQFKAFRRGFHMVTNESPLKYLFRPEEIELLICGSRNLDFQALEETTEYDGGYTRDSVLIREFWEIVHSFTDEQKRLFLQFTTGTDRAPVGGLGKLKMIIAKNGPDTERLPTSHTCFNVLLLPEY
B2: GST-E6AP ligase Hect domain (protein)
chain: B1 chain
B3: GST-E6APK688A (protein)
chain: MATACKRSGEPQSDDIEASRMKRAAAKHLIERYYHQLTEGCGNEACTNEFCASCPTFLRMDNNAAAIKALELYKINAKLCDPHPSKKGASSAYLENSKGAPNNSCSEIKMNKKGARIDFKDVTYLTEEKVYEILELCREREDYSPLIRVIGRVFSSAEALVQSFRKVKQHTKEELKSLQAKDEDKDEDEKEKAACSAAAMEEDSEASSSRIGDSSQGDNNLQKLGPDDVSVDIDAIRRVYTRLLSNEKIETAFLNALVYLSPNVECDLTYHNVYSRDPNYLNLFIIVMENRNLHSPEYLEMALPLFCKAMSKLPLAAQGKLIRLWSKYNADQIRRMMETFQQLITYKVISNEFNSRNLVNDDDAIVAASKCLKMVYYANVVGGEVDTNHNEEDDEEPIPESSELTLQELLGEERRNKKGPRVDPLETELGVKTLDCRKPLIPFEEFINEPLNEVLEMDKDYTFFKVETENKFSFMTCPFILNAVTKNLGLYYDNRIRMYSERRITVLYSLVQGQQLNPYLRLKVRRDHIIDDALVRLEMIAMENPADLKKQLYVEFEGEQGVDEGGVSKEFFQLVVEEIFNPDIGMFTYDESTKLFWFNPSSFETEGQFTLIGIVLGLAIYNNCILDVHFPMVVYRKLMGKKGTFRDLGDSHPVLYQSLKDLLEYEGNVEDDMMITFQISQTDLFGNPMMYDLKENGDKIPITNENRAEFVNLYSDYILNKSVEKQFKAFRRGFHMVTNESPLKYLFRPEEIELLICGSRNLDFQALEETTEYDGGYTRDSVLIREFWEIVHSFTDEQKRLFLQFTTGTDRAPVGGLGKLKMIIAKNGPDTERLPTSHTCFNVLLLPEYSSKEKLKERLLKAITYAKGFGML
B4: GST-E6APF727D (protein)
chain: B3 chain with A708K, F727D
B5: GST-E6APY533A (protein)
chain: B3 chain with Y553A, A708K
B6: GST-E6APD543A (protein)
chain: B3 chain with D563A, A708K
B7: GST-E6APR626A (protein)
chain: B3 chain with R646A, A708K

Each protein was assayed against UbcH7˜125I-ubiquitin thioester, P68036.
Chain of UbcH7˜125I-ubiquitin thioester, P68036 (P68036 whole entry, looked up): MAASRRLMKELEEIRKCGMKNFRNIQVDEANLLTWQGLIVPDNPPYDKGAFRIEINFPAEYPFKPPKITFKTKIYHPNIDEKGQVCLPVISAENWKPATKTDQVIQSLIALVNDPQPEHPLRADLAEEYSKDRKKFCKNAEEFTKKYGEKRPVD
Protein B1 has a Km- of 0.091 µM.
Protein B2 has a Km- of 0.089 µM.
With B3 the Km- was 0.039 µM.
B4 showed a Km- of 0.072 µM.
In the case of B5, the Km- is reported as 0.04 µM.
With B6 the Km- was 0.54 µM.
B7 showed a Km- of 0.15 µM.

What follows are proteins tested against Q05086.
B4 was tested, and the “fold decrease in kcat of polyubiquitin chain formation” value (“fold decrease in kcat” for short) was 62-fold decrease in kcat.
In the case of B5, the “fold decrease in kcat” value is reported as “decreased kcat 10-fold”.
In the case of B7, the “fold decrease in kcat” value is reported as “decreased kcat 155-fold”.
